# Test results published in patent publication US20140017242A1, “ANTI-BRADYKININ B2 RECEPTOR (BKB2R) MONOCLONAL ANTIBODY” (Diamedica, Inc., priority 2010, published 2014).
# Tests used:
# [1] = biological target: T1, human BKB2R-derived epitope peptide, SE ID NO:73 (Homo sapiens, UniProt P30411); assay: ForteBio Octet binding kinetics to the BKB2R epitope peptide
# T1 construct: purchased Biosyn, Lewisville, Tex
# Summary of the method: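 Antibodies were titrated kinetically on a ForteBio Octet label-free biolayer interferometry platform against the human BKB2R epitope peptide (SEQ ID NO:73), compared with the parent mouse monoclonal. Streptavidin biosensors coated with biotinylated peptide at 50 μg/ml were equilibrated in kinetic buffer, then underwent 500 s association in antibody dilutions and 500 s dissociation in buffer.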
# ZDF fa/fa rats [2] = assay: Oral glucose tolerance test in ZDF fa/fa rats, humanized mAbs; format: in vivo, rat; conditions: single s.c. administration 0.2 mg/kg
# From the text: This example describes evaluation of mouse mAb 5F12G1 and its twelve humanized clones in Zucker Diabetic fatty (ZDF fa/fa) rats for effects on insulin sensitivity in animals. Zucker Diabetic Rats develop symptoms similar to type 2 diabetes and are genetically resistant to insulin. […] Therefore, the Zucker rat is a good model to test the ability of the monoclonal antibody to increase insulin sensitivity, especially in an OGTT.
# Male ZDF fa/fa rats were obtained from Charles River (Kingston, ON). Upon arrival, rats were ten weeks of age. The rats were housed individually per cage in a room with a photo cycle of 12 hours of light and 12 hours of dark and an ambient temperature of 70-72° F. and fed on regular rodent diet and water ad libitum. After seven days of acclimatization, rats were grouped into fourteen groups of three rats per group (Table 10).
# Oral Glucose Tolerance Test. An oral glucose tolerance test (OGTT) was performed on overnight fasted (16 hours) rats. Rats received subcutaneously administered humanized mAbs, mouse mAb 5F12G1 (positive control) and PBS (vehicle control) at a dose of 0.2 mg/kg body weight, thirty minutes prior to glucose administration. D-Glucose was prepared in distilled water and administered orally at 2 g/kg body weight. Blood glucose levels were measured before administration of humanized mAbs, 5F12G1 or vehicle (t=−30 minutes) and just before glucose loading (0 minute), and at timepoints of 30, 60, 90 and 120 minutes, using Accu-chek™ glucose meter.
# ZDF fa/fa rats [3] = assay: Oral glucose tolerance test in ZDF fa/fa rats, single dose of 5F12G1; format: in vivo, rat; conditions: single s.c. administration 1.0, 0.2 and 0.04 mg/kg
# Experimental: This Example describes evaluation of oral glucose tolerance in Zucker Diabetic fatty (ZDF fa/fa) rats treated with 5F12G1 monoclonal antibody. Male ZDF fa/fa rats (Charles River) were maintained on a Harlan Tekled diet with Arrowhead drinking water ad libitum and allowed to acclimatize for one week. Six animals per group were treated according to the following treatment groups: 1, sterile PBS (vehicle control); 2, 1.0 mg/kg murine monoclonal antibody (mAb) 5F12G1 (VH comprising SEQ ID NO:1, VL comprising SEQ ID NO:2); 3, 0.2 mg/kg mAb 5F12G1; 4, 0.04 mg/kg mAb 5F12G1.
# Oral Glucose Tolerance Test. The Oral Glucose Tolerance Test (OGTT) was performed on overnight fasted (16 hours) rats. Vehicle control (PBS) or 5F12G1 monoclonal antibody was administered subcutaneously thirty minutes prior to glucose loading. D-glucose was prepared in distilled water and administered orally at 2 g/kg body weight.
# At multiple time points (0, 15, 30, 60, 90 and 120 minutes) blood samples of approximately 50 μl each were collected and processed to isolate the plasma. The plasma samples were analyzed for insulin by an ELISA method using an ultra sensitive mouse insulin ELISA kit (Crystal Chem, Inc., Downers Grove, Ill.). ELISA data were compiled and used to calculate the mean±standard error (SEM) with Microsoft Excel or GraphPad Prism version 5.00 for Windows (GraphPad Software, San Diego Calif. USA).
# ZDF fa/fa rats [4] = assay: 21-day ZDF fa/fa study: tolerability; format: in vivo, rat; conditions: different doses (0.2, 0.04, 0.008 mg/kg s.c. every 3 days), 21 days
# Experimental: Animals. Male ZDF fa/fa rats were obtained from CRL (Kingston, N.Y.). Upon arrival, rats were seven weeks of age. The rats were housed individually per cage in a room with a photo cycle of 12 hours of light and 12 hours of dark and an ambient temperature of 70-72° F. and fed on regular rodent diet and water ad libitum. At the age of eleven weeks, rats were divided into six groups (Table 5) of eight rats per group based on fasting blood glucose levels. A sub-group of four rats per group was maintained in parallel to the main groups and was dosed similarly for twenty-one days for a hyperinsulinemic-euglycemic clamp study.
# The test compounds 5F12G1 and MG2b-57 were administered subcutaneously once every three days. Exenatide was administrated intraperitoneally twice every day and sitagliptin was administrated orally once every day for a period of twenty-one days.
molecule,measurement,setting,value
"5F12G1: murine monoclonal anti-BKB2R antibody (IgG2b,κ), VH comprising SEQ ID NO:1, VL comprising SEQ ID NO:2 (antibody, listed as Mus musculus, V domains shown) VH: EVKLEESGGGLVQPGGSMKLSCVVSGFTFSDYWMSWVRHSPEMGLEWVAEIRLKSDNYATHYAESVKGRFTISRDDSKSRLYLQINSLRGEDTGIYYCTRDYYAMEYWGQGTSVTVSS VL: DVVMTQTPLSLPVSLGDQASISCRSSQTIVHSNGKTYLEWYLQKPGQSPKLLIYKVSNRFSGVPDRFSGSGSGTEFTLKISRVETEDLGVYYCFQASHVPYTFGGGTKLEIK",Max Response,[1]; Conc. 833 nM,0.0265
same,kdis,[1]; Conc. 833 nM,0.00109 s⁻¹
same,kon,[1]; Conc. 833 nM,2350 M⁻¹ s⁻¹
same,Max Response,[1]; Conc. 1000 nM,0.0385
same,kdis,[1]; Conc. 1000 nM,0.00109 s⁻¹
same,kon,[1]; Conc. 1000 nM,2350 M⁻¹ s⁻¹
same,Max Response,[1]; Conc. 1667 nM,0.0544
same,kdis,[1]; Conc. 1667 nM,0.00109 s⁻¹
same,kon,[1]; Conc. 1667 nM,2350 M⁻¹ s⁻¹
same,Max Response,[1]; Conc. 3333 nM,0.0757
same,kdis,[1]; Conc. 3333 nM,0.00109 s⁻¹
same,kon,[1]; Conc. 3333 nM,2350 M⁻¹ s⁻¹
same,glucose tolerance,ZDF fa/fa rats [2],showed improvement in glucose tolerance
same,"area under curve (AUC) of blood glucose concentration after oral administration of glucose, compared to vehicle control",ZDF fa/fa rats [2]; 30 min prior to glucose 2 g/kg,decreased
same,insulin activity in OGTT,ZDF fa/fa rats [3],dose dependently increased insulin activity
same,"area under curve (AUC) of blood glucose concentration after oral loading of glucose, compared to vehicle control",ZDF fa/fa rats [3]; 30 min before glucose 2 g/kg,decreased
same,tolerability / toxic effects,ZDF fa/fa rats [4],well tolerated and no toxic effects were noted
